Assay results from patent publication US20170073406A1.

Experiments:
[1] = biological target: biotinylated His-tagged TGF-β1 LAP C4S (Homo sapiens (Human)) (UniProt P01137); assay: ELISA, neutravidin plate with biotinylated His-tagged TGF-β1 LAP C4S; antibody dilution 1:10,000; fluorescent secondary detection
[2] = biological target: biotinylated His-tagged TGF-β1 LAP C4S (Homo sapiens (Human)) (UniProt P01137); assay: ELISA, neutravidin plate with biotinylated His-tagged TGF-β1 LAP C4S; antibody dilution 1:1,000; fluorescent secondary detection
[3] = biological target: biotinylated His-tagged TGF-β1 LAP C4S (Homo sapiens (Human)) (UniProt P01137); assay: ELISA, neutravidin plate with biotinylated His-tagged TGF-β1 LAP C4S; antibody dilution 1:5,000; fluorescent secondary detection

Chain of biotinylated His-tagged TGF-β1 LAP C4S (Homo sapiens (Human)) (P01137 other isoform, or with tags, fused parts or gaps limits assumed): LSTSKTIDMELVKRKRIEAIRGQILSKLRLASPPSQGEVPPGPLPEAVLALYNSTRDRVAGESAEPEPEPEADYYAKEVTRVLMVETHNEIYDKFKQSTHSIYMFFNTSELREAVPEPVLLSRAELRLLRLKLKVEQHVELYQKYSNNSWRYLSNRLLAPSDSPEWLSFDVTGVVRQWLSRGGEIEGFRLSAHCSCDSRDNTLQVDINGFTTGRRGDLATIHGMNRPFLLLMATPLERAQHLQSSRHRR

B1: 1D11 antibody (mouse monoclonal anti-TGF-β1, 2 and 3 antibody, R&D Systems, Minneapolis, Minn.) (antibody, from another filing, V domains shown)
VH: QVQLQQSGPELVRPGASVKLSCKASGYIFITYWMNWVKQRPGQGLEWIGQIFPASGSTNYNEMFEGKATLTVDTSSSTAYMQLSSLTSEDSAVYYCARGDGNYALDAMDYWGQGTSVTVSS
VL: DIVLTQSPASLAVSLGQRATISCRASESVDSYGNSFMHWYQQKSGQPPKLLIYLASNLESGVPARFSGSGSRTDFTLTIDPVEADDAATYYCQQNNEDPLTFGAGTKLEIK
RFU [1]: 198 RFU
RFU [2]: 218 RFU
RFU [3]: 214 RFU
